From the supplement of paper PMC9170038

System: MS2 coat protein
Experiment: apparent KD of MS2 coat protein; higher = weaker reporter binding
Settings: Eterna round: R107
Procedure: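 RNA-MaP round R107: designed RNA switches with theophylline, tryptophan, arginine or FMN aptamers are transcribed on-chip within common flanks. They are titrated with SNAP-549-labelled MS2 coat protein in RNA-MaP buffer (100 mM Tris pH 7.5, 80 mM KCl, 4 mM MgCl2), without ligand or with the indicated ligand. Median apparent KD per design.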

[1] = input ligand: theophylline 20 uM
[2] = input ligand: theophylline 2 mM
[3] = input ligand: tryptophan 2.4 mM

Row | Sequence | apparent KD of MS2 coat protein (input ligand: arginine 13.2 mM) [nM] | apparent KD of MS2 coat protein [1] [nM] | apparent KD of MS2 coat protein [2] [nM] | apparent KD of MS2 coat protein (input ligand: none) [nM] | apparent KD of MS2 coat protein [3] [nM]
1 | UAUUAUCAGUCGGCCGCCACUGACACAUGAGGAUCACCCAUGUAAUUUGGGUUAUAUAGAAAAUACAGGACCGGGACUAAGGCUA [JR_ExcTryptoB_Sub014] | 87.5 | 324 | 326 | – | –
2 | UGUAAUGGGAUCAACCCAUGAGAGUCUGAAGGAGCGAUCGUAAGAUCAGGUAGGUCGCGGGAGACAUGAGGAUCACCCAUGUAUA [#23 Exclusion - Arginine A] | 27.2 | 46.3 | 44.3 | 41 | 39.7
3 | UACAGCAGUACGGCCGCCACUCUAAGAUUGCGCGUUUAGGCCAUACAUGAGGAUCACCCAUGUCCGAGGACCGGGUACAGGAAUU [theeternabot_sameState_MS2_Trp_B_29] | 88.3 | 416 | 502 | 185 | 89.2
4 | ACAUGAGGAUCACCCAUGUAUUACCGGGAAGGAGCGCGUAAGGACGCAGGUAGGUCGCUCGGCGUCCGGCCGCAAGGCUGGACGA [#1 Same State - Arginine A Attempt #17 (HarryS)] | 12.3 | 18.1 | 16.4 | 16.3 | 15.2
5 | AAUAAACAUGAGGAUCACCCAUGUAUGGAAGGAGCGGUGAAUAAACCAGGUAGGUCGCCAGUGUGAGGGUCAUCUAUGUAAUAAA [Exclusion - Arginine A (Freestyle 2)] | 68.4 | 43.1 | 56.2 | 42.7 | 37.9
6 | AGAGUUAGACAAAAGUCUAGCUCACCAGAAGGAGCGUCCGAAAGGACAGGUAGGUCGCUGGUGCAUGAGGAUCACCCAUGCUCCU [ArgAS 19 #OpenEnded #AlternativeMS2] | 66.6 | 171 | 243 | 204 | 211
7 | UACAUGAGGAUCACCCAUGUAUGAAUAGAUACCAGCGAAAAUAAGCGCCCUUGGCAGCUAGUGAAUAAAGGGUGGGUAAAAUAAU [Exclusion Theophyline A GF 2] | 8.3 | 13.6 | – | – | 9.41
8 | AUACGUAACAGAAGGAGCGCACCGACAUGAGGAUCACCCAUGUGGGAUGGGACUCUUUUGGUGCAGGUAGGUCGCUGUCACGCAU [Beatattian] | 23.7 | 99.4 | 61.2 | 41.4 | 40.3
9 | UGUAUGGACUGAAGGAGCGGGUUGAUAACAUGAGGAUCACCCAUGUAAAAGGCGAAAGCCGCCCAGGUAGGUCGCAGUCCAUACU | 4.19 | 19.5 | 13.1 | 10.1 | 10.9
10 | UACUGUCUAACGGCCGCCACUCAGUCUCGGUUGAUUAUCUUAAGUGACAUGAGGAUCACCCAUGUGAGGACCGGGUUGUGCAUAA [theeternabot_exclusion_MS2_Trp_B_40] | 60.4 | 91.3 | 96.7 | – | –
11 | AGAGUCUAGUCGGCCGCCACUCAUGUCCAAAGGACAUGAGGAUCACCCAUGUACCAAUGGUACAUGAGGACCGGGACUGGACUCA [Omei Tryp B SS C v2] | 227 | 343 | 120 | – | –
12 | GCUUGGGUGGCACGGCCCUGGCGGUGCGAUACCAGCACGGUAACGUGCCCUUGGCAGCGCACAUGAGGAUCACCCAUGUGGUGCG [#1 Exclusion - Theophylline A Attempt #24 (HarryS)] | 13.1 | 21.9 | 185 | 15.6 | 13.7
13 | CACGAAAGAUCGGCCGCCACUCAUGUUUCUUACAUGAGGAUCACCCAUGUAUUUUCUUUCUUUUAGAGGACCGGGAUCGAGCGUG [#01 Same State - Tryptophan B] | 46.8 | 78.4 | 47.2 | – | –
14 | GUAUAUUGAAAACAAUAUACAGUGGGUGAACGAGGACCGGUACGGCCGCCACUCGGACAUGAGGAUCACCCAUGUCCAUGUGAAA [AstrosExyTryA#8] | 15.1 | 17.1 | 17.7 | – | –
15 | UUAUGCAGGUCGGCCGCCACUACACACAUGAGGAUCACCCAUGUAGUUACUGGGUGAAGUGGCAGUAGGACCGGGACCUGCACAC [Brourdmod14] | 148 | 403 | 823 | 470 | 891
16 | AAGACAUGAGGAUCACCCAUGUCGUCAACACGAGGACCGGUACGGCCGCCACUCGCAUGCCAAUGAGCGCAUGCGGCCUGGGUAU [Exclusion Tryp A GF4] | 8.77 | 18 | 13.8 | 14.8 | 34.3
17 | GGAUGGAACUCGGCCGCCACUGGUGAUCCUAAUGUACAUGAGGAUCACCCAUGUACAUGAGAAGAUAGGACCGGGAGAUAAGGGA [Tryptophan B V4 (+4G)] | 19.9 | 24.3 | 26.3 | 19.3 | 20.7
18 | UGGUCCGUCGGAAGGAGCGACAUGAGGAUCACCCAUGUCUCCCGUUAUGGGAGUUCUUUAGGUCAGGUAGGUCGCCGGCGGGUCA [#1 Exclusion - Arginine B Attempt #12 (Inspired by Omei)] | 91.6 | 209 | 220 | 111 | 144
19 | GAGCGCGUGGACUGGCGUGCUCCGCUCCGUCGAGGACCGGUACGGCCGCCACUCGACAUGAGGAUCACCCAUGUGUGCGCUCGCG [#1 Exclusion - Tryptophan A Attempt #19 (HarryS)] | 32.9 | 210 | 317 | – | –

Row | Sequence | apparent KD of MS2 coat protein (input ligand: arginine 13.2 mM) [nM] | apparent KD of MS2 coat protein [1] [nM] | apparent KD of MS2 coat protein [2] [nM] | apparent KD of MS2 coat protein (input ligand: none) [nM] | apparent KD of MS2 coat protein [3] [nM]
20 | AACUGGAUCAGUGAUACCAGAGACAUGAGGAUCACCCAUGUACAUGAGGAUCACCCAUGUCUCCCUUGGCAGCACAGCAGGGAGC [Exclusion Theophylline B GF 17] | 32.8 | 70.3 | 442 | 70 | 64.1
21 | AAACAUUGCUGCGAUACCAGACAUGAGGAUCACCCAUGUACCAAGGUAAGAAAAUAACAUGUCCCUUGGCAGCGCAGCAAUGAAA [MAT - Exclusion Theophlline B - Mod of Eli - D2] | 19.2 | 33.4 | – | – | 15.8
22 | GUCGGAGUCUGAAGGAGCGACAUGAGGAUCACCCAUGUCUCCCGUUAUGGGAGUUCCUUAGGUCAGGUAGGUCGCAGACUCCGAC [#1 Exclusion - Arginine B Attempt #25 (Inspired by Omei)] | 78.1 | 145 | 144 | 141 | 140
23 | GUAUUUAUAUGAAGGAGCGUCGAAAAUGGGUAAACAUGAGGAUCACCCAUGUAAAGGGAACGACAGGUAGGUCGCAUAUGGAUAC [AstromonsSSArgB#25] | 111 | 251 | 279 | 160 | 239
24 | UGGCAAGAGGGAAGGAGCGUCAGCUGAGUCACAUGAGGAUCACCCAUGUAGCACAUAGUGUGACAGGUAGGUCGCCCUCUGCCGU [SS-ArgB10] | 6.72 | 10.1 | 10.3 | 8.82 | 9.62
25 | AGUGUUAUAACUGAUACCAGACCUUUGCUUAUACAUGAGGAUCACCCAUGUAAAAUGGCUGUCCCUUGGCAGCAGAGAAUACACA [#07 Same State - Theophylline B] | 42.9 | 45.2 | – | – | 47.1
26 | GGACCAUGGAGCGAUACCAGCUUGAGUGUACUGGCCAGGUACAUGAGGAUCACCCAUGUAAGCCCUUGGCAGCGCUCCAUGGUCC [#1 Exclusion - Theophylline B Attempt #25 (HarryS)] | 8.38 | 14.7 | 30.8 | 9.95 | 12.3
27 | UGGGUUGGACCAGGAAAUGGUCUGACGCACCGAGGACCGGUACGGCCGCCACUCGGCCGUACAUGAGGAUCACCCAUGUCGGUGU [#1 Same State - Tryptophan A Attempt #13 (HarryS)] | 107 | 486 | 1170 | 376 | 740
28 | ACAUGAGGAUCACCCAUGUUGAGCACAGAAGGAGCGUGAUUAAGCACAGGUAGGUCGCUGUACUUAUCGAGCGUUAGCUCGAUAC [JR_Nu_SSArginiA_Sub030] | 21 | 32.6 | 28.3 | 22.3 | 22.8
29 | UCCAUCGGCGGAAGCCGAUGGUUUACAGAAGGAGCGUAGGAAACUACAGGUAGGUCGCUGGACAUGAGGAUCACCCAUGUGUUUU [SSAA #12] | 24.4 | 22.4 | 30 | 26.5 | 20.8
30 | UAUCGUCAGACGGCCGCCACUAGAACAUGAGGAUCACCCAUGUACGGCCGCUCGGUCCUCAUGACUAGGACCGGGUCUGACGAAU [(Trp1)-(Ms2)-(T)'-(M)'-(Trp2)_Design22] | 10.8 | 16.9 | 12 | 7.31 | 9.96
31 | ACAUGUCUUAUAGAUACCAGACAGGACAUGAGGAUCACCCAUGUAAUGUAUACAUGCAGAGUCCCUUGGCAGCUAAGGUCAUAGA [#26 Same State - Theophylline B] | 54.6 | 110 | – | – | 92.8
32 | UGUGUAAUUGUCUGGUAGAUUUAUUUUUUUCGAGGACCGGUACGGCCGCCACUCGUUAUUUACAUGAGGAUCACCCAUGUUAGCU [JR_ExcTryptoA_Sub007] | 12.4 | 22.3 | 15.5 | – | –
33 | ACUACGAAGACGGCCGCCACUGAUAUUCGUAGAUCCAUCAAUACAUGAGGAUCACCCAUGUAUAUCAGGACCGGGUCAAGAUGGU [Tryp B Ex t6] | 23.3 | 39.2 | 28.2 | – | –
34 | GAGCACAUGAGGAUCACCCAUGUUGGCACACGAGGACCGGUACGGCCGCCACUCGCGGCGGGAAUAACUUUGCGCAGAUGAUGGG [theeternabot_sameState_MS2_Trp_A_50] | 27.5 | 37.5 | 23.7 | 23.9 | 21.4
35 | AACUGGGUUCGUGAUACCAGCUCACACAUGAGGAUCACCCAUGUAGUGGGUAAAAUGUGGAGCCCUUGGCAGCACUGUGACCACG [Esria] | 14.6 | 25.4 | – | – | 14.4
36 | GACCUUGCGGGCGCCCGCAAGGUCGCGGAUACCAGCGAGGUCCAUCGCCCUUGGCAGCCGAACAUGAGGAUCACCCAUGUCGGUU [Same State - Theophylline A Attempt #5 (HarryS)] | 8.39 | 12.8 | – | – | 11
37 | CCAUGCGUAGGAAGGAGCGCAUACUUCACAUGAGGAUCACCCAUGUCGAGACGUGAGUCAGUGCAGGUAGGUCGCCUACGCAUGG [Same State - Arginine B (Freestyle 27)] | 16.6 | 24.3 | 20.6 | 17.6 | 19.4
